Measurements reported in publication PMC9214244, “Multivalent Interaction of Beta-Catenin With its Intrinsically Disordered Binding Partner Adenomatous Polyposis Coli” (Frontiers in Molecular Biosciences, 2022).
Where two headings read alike, the source gives them in different places.

Assays:
[1] = molecular target: APCabc with the flexible linker (FL) inserted between residues 1,478 and 1,479, fluorescein-labelled at Cys 1501 (UniProt P25054); assay: fluorescence polarisation; fluorescence anisotropy; β-catenin titrated into 10 nM fluorescein-labelled APC construct; PBS, 1 mM DTT; 15°C; adjusted anisotropy fitted to a Hill equation
[2] = molecular target: APCabc with the flexible linker (FL) inserted between residues 1,500 and 1,501, fluorescein-labelled at Cys 1501 (UniProt P25054); assay: as above
[3] = molecular target: APCabc with the rigid linker (RL) inserted between residues 1,500 and 1,501, fluorescein-labelled at Cys 1501 (UniProt P25054); assay: as above
[4] = molecular target: APCabc, third 20aa repeat (R3) region of APC with subdomains a, b and c, fluorescein-labelled at Cys 1501 (UniProt P25054); assay: as above
[5] = molecular target: APCbc, APC R3 subdomains b and c (residues 1,483–1,533), fluorescein-labelled at Cys 1501 (UniProt P25054); assay: as above
[6] = molecular target: pAPCabc D1486S, fluorescein-labelled at Cys 1501 (UniProt P25054); assay: as above
[7] = molecular target: pAPCabc with the flexible linker (FL) inserted between residues 1,478 and 1,479, fluorescein-labelled at Cys 1501 (UniProt P25054); assay: as above
[8] = molecular target: pAPCabc with the flexible linker (FL) inserted between residues 1,500 and 1,501, fluorescein-labelled at Cys 1501 (UniProt P25054); assay: as above
[9] = molecular target: pAPCabc with the polyproline linker (PP) inserted between residues 1,500 and 1,501, fluorescein-labelled at Cys 1501 (UniProt P25054); assay: as above
[10] = molecular target: pAPCabc with the rigid linker (RL) inserted between residues 1,500 and 1,501, fluorescein-labelled at Cys 1501 (UniProt P25054); assay: as above
[11] = molecular target: pAPCabc, full-length R3 domain APCabc containing all five phosphomimetics, fluorescein-labelled at Cys 1501 (UniProt P25054); assay: as above
[12] = molecular target: pAPCc, phospho domain c of APC R3 in the phosphomimetic form, fluorescein-labelled at Cys 1501 (UniProt P25054); assay: as above
[13] = molecular target: pAPCabc D1486S, fluorescein-labelled at Cys 1501 (UniProt P25054); assay: as above; remark: listed apart in the source
[14] = molecular target: APCabc with the rigid linker (RL) inserted between residues 1,500 and 1,501, fluorescein-labelled at Cys 1501 (UniProt P25054); assay: stopped-flow fluorescence; association: 25 nM fluorescein-labelled APC mixed 1:1 by volume with 250-2,000 nM β-catenin (pseudo first-order); dissociation: pre-formed 1:1 complex (200 nM) mixed with 10 times molar excess of the same APC construct; PBS, 1 mM DTT; 15°C
[15] = molecular target: pAPCabc with the flexible linker (FL) inserted between residues 1,500 and 1,501, fluorescein-labelled at Cys 1501 (UniProt P25054); assay: as above
[16] = molecular target: pAPCabc with the rigid linker (RL) inserted between residues 1,500 and 1,501, fluorescein-labelled at Cys 1501 (UniProt P25054); assay: as above
[17] = molecular target: pAPCabc, full-length R3 domain APCabc containing all five phosphomimetics, fluorescein-labelled at Cys 1501 (UniProt P25054); assay: as above

Sequence of armadillo (ARM) repeat domain of human β-catenin (residues 134–671) (P35222 other isoform, or with tags, fused parts or gaps): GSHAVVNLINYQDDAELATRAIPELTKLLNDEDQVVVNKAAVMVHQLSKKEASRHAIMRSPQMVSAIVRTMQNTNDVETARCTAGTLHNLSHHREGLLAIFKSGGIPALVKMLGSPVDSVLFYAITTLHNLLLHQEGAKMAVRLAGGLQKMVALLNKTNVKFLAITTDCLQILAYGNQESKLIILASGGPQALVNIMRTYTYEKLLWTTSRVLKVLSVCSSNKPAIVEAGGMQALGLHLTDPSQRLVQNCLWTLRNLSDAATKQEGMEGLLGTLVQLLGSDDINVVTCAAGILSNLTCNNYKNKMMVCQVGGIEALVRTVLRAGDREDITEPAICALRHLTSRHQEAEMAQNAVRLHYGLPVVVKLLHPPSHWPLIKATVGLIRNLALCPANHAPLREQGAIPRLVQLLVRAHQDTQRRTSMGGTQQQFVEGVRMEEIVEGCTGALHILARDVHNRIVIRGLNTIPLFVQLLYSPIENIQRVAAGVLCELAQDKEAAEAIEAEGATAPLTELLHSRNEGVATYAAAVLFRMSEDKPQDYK

Substance: armadillo (ARM) repeat domain of human β-catenin (residues 134–671) (from UniProt P35222 134-671) (domain or fragment)
- Kd [1]: 21.5 nM
- Kd [2]: 28.3 nM
- Kd [3]: 31.2 nM
- Kd [4]: 16.5 nM
- Kd [5]: 196 nM
- Kd [6]: 21.4 nM
- Kd [7]: 18.7 nM
- Kd [8]: 10.9 nM
- Kd [9]: 16.4 nM
- Kd [10]: 10.8 nM
- Kd [11]: 5.3 nM
- Kd [12]: 160 nM
- Kd [13]: 30 nM
- koff fast [14]: 0.89 s⁻¹
- koff slow [14]: 0.223 s⁻¹
- kon [14]: 1.81e+07 M⁻¹ s⁻¹
- time constant τ (from the fast off-rate) [14]: 0.8 s
- koff fast [15]: 0.16 s⁻¹
- koff slow [15]: 0.0085 s⁻¹
- kon [15]: 1.01e+08 M⁻¹ s⁻¹
- time constant τ (from the fast off-rate) [15]: 4.45 s
- koff fast [16]: 0.21 s⁻¹
- koff slow [16]: 0.0122 s⁻¹
- kon [16]: 1.02e+08 M⁻¹ s⁻¹
- time constant τ (from the fast off-rate) [16]: 3.52 s
- koff fast [17]: 0.07 s⁻¹
- koff slow [17]: 0.0021 s⁻¹
- kon [17]: 2.07e+08 M⁻¹ s⁻¹
- time constant τ (from the fast off-rate) [17]: 9.51 s
